± gives the standard deviation of the averaged measurements.
Assay: total protein half-life in vivo (active degradation + dilution); higher = more stable protein
[1] = E. coli NCM3722 delta-clpP delta-lon delta-hslV, growth: N-lim chemostat, doubling time 6 h
[2] = E. coli NCM3722 delta-clpP, growth: N-lim chemostat, doubling time 6 h
[3] = E. coli NCM3722 delta-hslV, growth: N-lim chemostat, doubling time 6 h
[4] = E. coli NCM3722 delta-lon, growth: N-lim chemostat, doubling time 6 h
[5] = E. coli NCM3722 delta-smpB, growth: N-lim chemostat, doubling time 6 h
[6] = wild type E. coli NCM3722, growth: C-lim chemostat, doubling time 3 h
[7] = wild type E. coli NCM3722, growth: C-lim chemostat, doubling time 6 h
[8] = wild type E. coli NCM3722, growth: C-lim chemostat, doubling time 12 h
[9] = wild type E. coli NCM3722, growth: N-lim chemostat, doubling time 6 h
[10] = wild type E. coli NCM3722, growth: N-lim chemostat, doubling time 12 h
[11] = wild type E. coli NCM3722, growth: P-lim chemostat, doubling time 6 h
[12] = wild type E. coli NCM3722, growth: P-lim chemostat, doubling time 12 h

Sequence	total protein half-life in vivo [1] [h]	total protein half-life in vivo [2] [h]	total protein half-life in vivo [3] [h]	total protein half-life in vivo [4] [h]	total protein half-life in vivo [5] [h]	total protein half-life in vivo [6] [h]	total protein half-life in vivo [7] [h]	total protein half-life in vivo [8] [h]	total protein half-life in vivo [9] [h]	total protein half-life in vivo [10] [h]	total protein half-life in vivo [11] [h]	total protein half-life in vivo [12] [h]
MVKLPPLSLYIHIPWCVQKCPYCDFNSHALKGEVPHDDYVQHLLNDLDNDVAYAQGREVKTIFIGGGTPSLLSGPAMQTLLDGVRARLPLAADAEITMEANPGTVEADRFVDYQRAGVNRISIGVQSFSEEKLKRLGRIHGPQEAKRAAKLASGLGLRSFNLDLMHGLPDQSLEEALGDLRQAIELNPPHLSWYQLTIEPNTLFGSRPPVLPDDDALWDIFEQGHQLLTAAGYQQYETSAYAKPGYQCQHNLNYWRFGDYIGIGCGAHGKVTFPDGRILRTTKTRHPRGFMQGRYLESQRDVEATDKPFEFFMNRFRLLEAAPRVEFIAYTGLCEDVIRPQLDEAIAQGYLTECADYWQITEHGKLFLNSLLELFLAE	4.14 ± 1.6	5.76 ± 2.5	4.32 ± 0.36	4.24 ± 0.52	3.734 ± 0.022	3.01 ± 0.05	4.82 ± 0.96	8.1 ± 1.6	4.03 ± 0.08	6.81 ± 0.47	5.41 ± 0.25	10.4 ± 0.86
MLWGFVFVSFISKELALGQSEYISWVKCTSWLSNFVNLRGLRQPDGRPLYEYHATNDEYTQLTQLLRAVGQSQSNICNRDFAACFVLFCSEWYRRDYERQCGWTWDPIYKKIGISFTATELGTIVPKGMEDYWLRPIRFYESERRNFLGTLFSEGGLPFRLLKESDSRFLAVFSRILGQYEQAKQSGFSALSLARAVIEKSALPTVFSEDTSVELISHMADNLNSLVLTHNLINHKEPVQQLEKVHPTWRSEFPIPLDDETGTHFLNGLLCAASVEAKPRLQKNKSTRCQFYWSEKHPDELRVIVSLPDEVSFPVTSEPSTTRFELAICEDGEEVSGLGPAYASLENRQATVRLRKSEVRFGRQNPSAGLSLVARAGGMIVGSIKLDDSEIAIGEVPLTFIVDADQWLLQGQASCSVRSSDVLIVLPRDNSNVAGFDGQSRAVNVLGLKALPVKGCQDVTVTANETYRIRTGREQISIGRFALNGKRASWVCHPDETFIGVPKVISTLPDIQSIDVTRYTC	–	–	–	–	–	–	–	–	5.44	–	–	–
MTITDLVLILFIAALLAFAIYDQFIMPRRNGPTLLAIPLLRRGRIDSVIFVGLIVILIYNNVTNHGALITTWLLSALALMGFYIFWIRVPKIIFKQKGFFFANVWIEYSRIKAMNLSEDGVLVMQLEQRRLLIRVRNIDDLEKIYKLLVSTQ	7.14	7.25	6.58	–	6.13 ± 0.82	2.77 ± 0.15	4.79	–	5.6	8.94	–	–
MTTPTFDTIEAQASYGIGLQVGQQLSESGLEGLLPEALVAGIADALEGKHPAVPVDVVHRALREIHERADAVRRQRFQAMAAEGVKYLEENAKKEGVNSTESGLQFRVINQGEGAIPARTDRVRVHYTGKLIDGTVFDSSVARGEPAEFPVNGVIPGWIEALTLMPVGSKWELTIPQELAYGERGAGASIPPFSTLVFEVELLEIL [P0A9L3]	4.93 ± 0.29	4.54 ± 0.58	3.72 ± 0.16	5 ± 0.44	3.45 ± 0.19	3.06 ± 0.2	5.67 ± 0.37	10.4 ± 0.65	3.59 ± 0.1	5.3 ± 0.15	5.591 ± 0.04	11 ± 0.86
MSLPHCPKCNSEYTYEDNGMYICPECAYEWNDAEPAQESDELIVKDANGNLLADGDSVTIIKDLKVKGSSSMLKIGTKVKNIRLVEGDHNIDCKIDGFGPMKLKSEFVKKN [P0AFJ1]	5.52 ± 0.25	–	6.14 ± 1.1	5.91 ± 1	4.71 ± 0.15	2.53 ± 0.093	–	10.2 ± 0.45	4.88	10.2 ± 0.21	5.38 ± 0.21	–
MSLPMLQVALDNQTMDSAYETTRLIAEEVDIIEVGTILCVGEGVRAVRDLKALYPHKIVLADAKIADAGKILSRMCFEANADWVTVICCADINTAKGALDVAKEFNGDVQIELTGYWTWEQAQQWRDAGIGQVVYHRSRDAQAAGVAWGEADITAIKRLSDMGFKVTVTGGLALEDLPLFKGIPIHVFIAGRSIRDAASPVEAARQFKRSIAELWG	5.41	2.49	2.68	–	4.15 ± 2.2	2.29 ± 0.076	5.11 ± 1.5	5.84 ± 1.4	–	–	2.69	3.39
MNPAVDNEFQQWLSQINQVCGNFTGRLLTERYTGVLDTHFAKGLKLSTVTTSGVNLSRTWQEVKGSDDAWFYTVFQLSGQAIMEQDERQVQIGAGDITLLDASRPCSLYWQESSKQISLLLPRTLLEQYFPHQKPICAERLDADLPMVQLSHRLLQESMNNPALSETESEAALQAMVCLLRPVLHQRESVQPRRERQFQKVVTLIDDNIREEILRPEWIAGETGMSVRSLYRMFADKGLVVAQYIRNRRLDFCADAIRHAADDEKLAGIGFHWGFSDQSHFSTVFKQRFGMTPGEYRRKFR	6.1 ± 0.083	–	–	1.98	–	0.364 ± 0.09	0.661 ± 0.089	0.65	–	–	–	–
MKNKADNKKRNFLTHSEIESLLKAANTGPHAARNYCLTLLCFIHGFRASEICRLRISDIDLKAKCIYIHRLKKGFSTTHPLLNKEVQALKNWLSIRTSYPHAESEWVFLSRKGNPLSRQQFYHIISTSGGNAGLSLEIHPHMLRHSCGFALANMGIDTRLIQDYLGHRNIRHTVWYTASNAGRFYGIWDRARGRQRHAVL [P0ADH5]	5.33 ± 0.87	–	–	1.9	0.718 ± 0.15	–	–	–	–	0.988	–	–
MDKVLDSALLSSANKRKGILAIGAHPDDIELGCGASLARLAQKGIYIAAVVMTTGNSGTDGIIDRHEESRNALKILGCHQTIHLNFADTRAHLQLNDMISALEDIIKNQIPSDVEIMRVYTMHDADRHQDHLAVYQASMVACRTIPQILGYETPSTWLSFMPQVFESVKEEYFTVKLAALKKHKS	5.73	–	–	–	–	–	–	–	–	–	–	–
MGMENYNPPQEPWLVILYQDDHIMVVNKPSGLLSVPGRLEEHKDSVMTRIQRDYPQAESVHRLDMATSGVIVVALTKAAERELKRQFREREPKKQYVARVWGHPSPAEGLVDLPLICDWPNRPKQKVCYETGKPAQTEYEVVEYAADNTARVVLKPITGRSHQLRVHMLALGHPILGDRFYASPEARAMAPRLLLHAEMLTITHPAYGNSMTFKAPADF [P0AA37]	4.98 ± 0.17	4.59 ± 0.51	5.03 ± 0.2	4.55 ± 1.1	4.63 ± 0.28	3.82	7.71	–	4.66 ± 0.18	7.6	6.39	12.7
